According to the supplement of paper PMC12042874:
± gives the uncertainty stated by the source.

assay: amyloid nucleation score (Sup35N fusion, yeast selection) (log enrichment); library NNK2; higher = more nucleation; inactive = no reads after selection
How it was run: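 DiMSum was used to calculate nucleation scores as log enrichment of output over input reads, centred on the mode score of non-aggregating sequences. Sequences with fewer than 100 input reads were not scored. Input and output came from Illumina sequencing of plasmid inserts in psi-negative yeast expressing peptides of 20 random codons fused to Sup35N, induced 24 hours with 100 μM copper sulfate and then grown 7 days at 30°C on medium lacking adenine and uracil.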

Row | Substance | amyloid nucleation score
1 | HNVVRGFCLVFTIYHSGRTR | 5.1 ± 0.082
2 | KSRFML | 0.627 ± 0.57
3 | CVECYFRCGLGITEVDTN | inactive
4 | LIGIARSRVYRVKECFVHGL | 0.519 ± 0.43
5 | LTRLFYPWK | -0.14 ± 1.1
6 | FTGRETFQRKRFAAVLSSSV | -0.062 ± 0.65
7 | MTYYRAYFAYLWVVRLWL | 0.029 ± 0.32
8 | DYCLSSICFLIDVGESFERG | 0.171 ± 0.44
9 | GNNRAY | -0.117 ± 0.74
10 | VVQQLIRKITVFSLRLVLNK | 4.16 ± 0.073
11 | TIQRRQFVNPDSVVMLRINY | -0.704 ± 0.76
12 | IKLDIYNWAFSFNWFDK | 6.05 ± 0.075
13 | WLMCMPILRSCWMSSG | 0.749 ± 0.22
14 | LVRMIIVYTCRW | 0.533 ± 0.33
15 | TNIQN | -0.69 ± 0.61
16 | AGEQEVDGPVIQRWSGFTTR | 2.2 ± 0.21
17 | AIQLCLWSKRSQGRWFTLPV | 0.82 ± 0.47
18 | MDCILNYFFVLLLGHGNLLM | -0.826 ± 0.54
19 | KAYLCSFMMCFLL | 6.803 ± 0.056
20 | NKFDRFMFPRVR | -0.98 ± 0.35
21 | ASMKGYV | 0.148 ± 0.5
22 | LVTEVEFMSTAAGKECYCNI | -0.555 ± 0.35
23 | SHEMGGFHNSNL | -1.56 ± 1
24 | GRESKVWIPFTGALF | -1.04 ± 1.1
25 | VWTSIYDFSLWADYGQK | -1.58 ± 1.1

Row | Substance | amyloid nucleation score
26 | RGEHRERCGDIGRYGMGRRA | 1.27 ± 0.14
27 | GGTLHWLAMDTNMVNMACIG | inactive
28 | VGCCVQGNLYSSFLAMFVA | 7.352 ± 0.028
29 | LSAVLSAHIMVCLGYAYLG | inactive
30 | TYLRSPLLLNAVSVNT | 0.082 ± 0.65
31 | IMASLRMKDANCLSCTCYNR | 6.798 ± 0.027
32 | WDSRDLMC | 0.344 ± 0.39
33 | LRCHDGVKLSKSVCECCMYM | 2.37 ± 0.19
34 | YISGWYCVNTVSRNNSYRES | -1.72 ± 0.49
35 | NSAKKLRRPGATCPGQDGYT | 0.864 ± 0.41
36 | DLGAFRLRR | -2.19 ± 0.54
37 | IFFALNSTPPYYIYPEFKLQ | inactive
38 | ANLCSAT | -0.799 ± 0.44
39 | SFFFPWCVTGLRVSHTTAKF | -0.237 ± 0.63
40 | VVSGTLKKMGVFGTSAIISE | 0.494 ± 0.8
41 | FLSLLR | -1.05 ± 0.42
42 | LFWGWITFTKECTNWGATIG | 0.895 ± 0.58
43 | GIRAVVL | 0.374 ± 0.18
44 | LYIVDPSTASKAHTSSLPKS | -0.324 ± 0.55
45 | VYYASDNWYLAYRWEGRRFN | 0.821 ± 0.27
46 | VNHLYYCFCTLITHEVRVVS | 5.363 ± 0.034
47 | NGEASVGDFNVCLR | -0.478 ± 0.64
48 | FSDDLVRDV | -0.505 ± 0.28
49 | VRYTVTRTRGRYMVKCCENV | 0.108 ± 0.2
50 | SSSTFCCLWTFDTRVQFLVN | 7.39 ± 0.079

Row | Substance | amyloid nucleation score
51 | VDLYQVWSSCPVFVLWGYSC | 0.072 ± 0.79
52 | DYSLSWVRYSFAYRGVSKDG | 0.061 ± 0.12
53 | QYSYGWHLRTIRIRRTCTGS | 1.15 ± 0.31
54 | LFDSCSDSRMFNWMGPSNGQ | inactive
55 | KADLRKHSLDIGSCADGIRI | 0.416 ± 0.8
56 | GTYFNLYAGVLSVRQWPPHI | 4.42 ± 0.061
57 | FMFRQCSQFMMGYYLLNG | 0.313 ± 0.46
58 | WFIRIAIMARSFCIIALVPR | -1.22 ± 0.47
59 | REALDHWVDRVTVRWVRICI | -0.474 ± 0.35
60 | QEELSWSS | 0.131 ± 0.25
61 | YFELKLKNARVGRFIDWRAT | 1.77 ± 0.27
62 | GFVLILTAIYVVGCINICAM | 5.66 ± 0.064
63 | LETGNRRHTEYLCYDVWVIL | 0.394 ± 0.39
64 | EFWANRYGNHPLLGIHHCSP | 0.135 ± 0.77
65 | IICSNRQIRFKKGDFFIVFW | inactive
66 | TRVGGWKTSG | 0.945 ± 0.32
67 | NSMNVEHNMYNLFIYMPSFV | 7.065 ± 0.07
68 | HPDDTMKFSSRTHITTQTDR | 0.908 ± 0.52
69 | PVAQTLAVTFNY | 1.62 ± 0.23
70 | TYGGEV | 0.251 ± 0.31
71 | IYHFNFIFNYLMGDPPYRAT | 7.778 ± 0.04
72 | KLHRSESVHVICTVCS | 1.17 ± 0.3
73 | DSVGMVRTLVWDWGQATNGR | 0.953 ± 0.51
74 | SQALCDGALYTHFAISSIDR | inactive
75 | TSSLDEEALS | -0.648 ± 0.55

Row | Substance | amyloid nucleation score
76 | GETVHREYLAGWMALSSRRR | 2.47 ± 0.094
77 | NDGYFVFDALFFHR | -2.34 ± 0.75
78 | CNRCIQRMRASMTDSVFSGV | -1.35 ± 0.49
79 | NKSLFMKFCVSLFRLGSYVT | -0.618 ± 0.48
80 | TVIIDDTCICFYYIEYMWCE | inactive
81 | PRVNILWYNRMLYAWFRPVV | -1.21 ± 0.55
82 | KAGVKLSLGNCRYSTL | 0.527 ± 0.8
83 | CYIFYS | inactive
84 | RYKWFNKWYTCWYSRFKFYV | -1.13 ± 0.26
85 | KCLVSMVLMYAVTMIWDAPD | 1.35 ± 0.3
86 | RRGHVL | 1.82 ± 0.21
87 | VKFCVWCGD | 7.039 ± 0.06
88 | IQLIQML | 0.27 ± 0.57
89 | PFLSLAVFVTQAVVEHCCRC | 7.48 ± 0.085
90 | SIRLYHYKFALRERKV | 5.345 ± 0.053
91 | NETLSTCCLYHFKG | 4.04 ± 0.046
92 | DCSLELVNRRGSGIVQCAGY | 1.1 ± 0.38
93 | FNCHCSLSLVNHLASFTLSF | 1.8 ± 0.16
94 | VTRLFGIREFRG | 3.65 ± 0.053
95 | HNVGILWSSCCSRMYIAYAY | -0.288 ± 1
96 | ILDLWIVESKCFTSNMLHWV | -0.424 ± 0.76
97 | STIQGIKNRSYRHSSANRVN | 0.333 ± 0.61
98 | GNHSAVAPS | -0.677 ± 0.38
99 | NVDRRQGETWSNPYDLMRRL | 0.291 ± 0.19
100 | VYQYWYIAISLRGRPGQCRL | 4.06 ± 0.05

Row | Substance | amyloid nucleation score
101 | TRNWRGYVCYSEVIIVVKQE | -0.839 ± 0.78
102 | ESTLRVMGRKAISSGLMCIA | 0.269 ± 0.28
103 | FYWVLMNYGQLCCWFW | 1.79 ± 0.2
104 | RTRSSYGVVLKIRKWCPEVA | 1.18 ± 0.61
105 | YFFKRIW | inactive
106 | TRSPCGRCDSEFLNASLAGL | 0.71 ± 0.36
107 | PLPGFRIMFLWRQNALPVQP | 0.196 ± 0.64
108 | ENYFCSYWFCFSWALG | 6.362 ± 0.062
109 | GDKCGFCKNAGPGVKVS | -0.807 ± 0.79
110 | SINWAFDYVSVLVGFD | inactive
111 | RRLFRLVVYFLPNR | inactive
112 | FNCPRSAMIVNQRHRILSGV | -0.057 ± 0.43
113 | SSYGWVMLMEDFW | -1.23 ± 0.62
114 | KERAYRGNQAKKRLKTALFY | inactive
115 | WKVRISVFMLEAL | 2.77 ± 0.075
116 | FDTASTVDSVRIRKTKSSQ | inactive
117 | PFSIVIVANFYIITYEACFL | 2.85 ± 0.14
118 | SISSGFFWKEAIKGSAVSLW | 0.36 ± 0.8
119 | SHCPVRYMVGIS | -1.02 ± 0.78
120 | SVFSYQYETKVGSQNLLEYI | -0.751 ± 1.1
121 | VWYSDDWSWWGARRLCKNRR | 0.236 ± 1.1
122 | NRYTLDVVNFSNNYSISSNR | 1.76 ± 0.12
123 | SVFVCTDIFK | 0.702 ± 0.52
124 | NLCTVVCSDTAVLWTALPRL | 9.478 ± 0.062
125 | PYQMGSYKLACVQKRPWV | 0.929 ± 0.58

Row | Substance | amyloid nucleation score
126 | LGRLIWTRVSYCMSQINRVR | 2.23 ± 0.061
127 | SSCLIG | 0.28 ± 0.43
128 | CYCDSWIMAS | -1.69 ± 0.55
129 | LLKARLLRSHLWVG | 0.057 ± 0.43
130 | YPEPKQWVSVSALHLVRGLR | 0.995 ± 0.2
131 | HCRYWVCCQLLVILTYSEAF | inactive
132 | YNMCYNG | -0.781 ± 1.1
133 | GVMIRKSARYYL | -0.275 ± 0.79
134 | LKAQRFWTNNLSLEANSHRK | -0.573 ± 1.1
135 | YEPCLRSQNVSS | 0.112 ± 0.79
136 | QLVGDELMRCSNGAVDKNVA | 1.75 ± 0.24
137 | CNSSSGHDKIVIGSLFRVFA | -1.42 ± 0.62
138 | HCFALGR | 0.088 ± 0.21
139 | YTVPSQNKWVENLMNWRGYR | -0.663 ± 0.23
140 | LAMEWSRCRTGPL | 1.68 ± 0.15
141 | TGLVMVHSTRVPKRLGMLCL | 0.967 ± 0.33
142 | WTQGFYTFSDHAPLVIILLE | inactive
143 | CWTEY | -0.589 ± 0.3
144 | WLGIAAM | 1.15 ± 0.43
145 | IVVSRMETSIKTCYFVMFHS | -0.421 ± 0.38
146 | SYYYEGGPCWIEDLHGNVYV | 0.183 ± 0.64
147 | LGHASSFCAYCRFDSM | 4.16 ± 0.068
148 | NVWNLQLYPTATCAKYNGAV | 4.13 ± 0.045
149 | AVMMCIASIDFRVWYLG | 1.53 ± 0.15
150 | HWSLGSYFGYNFGR | 5.67 ± 0.062

Row | Substance | amyloid nucleation score
151 | SVNILDTWDKVAPTKRPLES | 0.266 ± 0.49
152 | CPWSQSRLAYYTCGYYTASS | 0.193 ± 0.5
153 | CHHQRYGSGFRLRNSLTVGS | 0.015 ± 0.41
154 | LELLSLIFSFG | 2.13 ± 0.18
155 | GFVMSYGRGLLS | 0.29 ± 0.42
156 | LSGMIGSSWAFVSLALIRYQ | -0.798 ± 0.64
157 | HWKVENRLNSMEWKSMGGQN | 3.97 ± 0.053
158 | RTWAFFKAVWGIVDRTTLSN | -1.13 ± 0.62
159 | TFTGLFKKLI | inactive
160 | LFEMC | 0.443 ± 0.26
161 | HSNPYRKLIQLTMTGITGTV | 0.033 ± 0.48
162 | ITCIAGWSNLNDYVFYTVAS | inactive
163 | SVLER | -0.147 ± 1.1
164 | MLELSATMSVHVQRLNASGH | 9.009 ± 0.068
165 | KSEAGYA | 0.658 ± 0.51
166 | QIMLAGLRSLDLTVDRTFNS | inactive
167 | RTLWATNVRLKNLHVFIMVM | 0.147 ± 0.8
168 | HYISRHQLWILFFVKCVNSR | 5.01 ± 0.1
169 | WNIWFTVCYCKHLSKSKGSD | 8.667 ± 0.033
170 | ISPIESSDRMGGCSLRAILP | -0.66 ± 0.35
171 | GICKALARYYFSIYDWQVTE | 0.049 ± 1.1
